Measured values taken from the RNAGym collection of RNA variant scans (doi:10.1021/acssynbio.7b00057).

B1: Pistol ribozyme (parent)
chain: GGGUCGUUGUUCCAUAAUCGCGUGGAUAUGGCACGCAAGUUUCUACCGGGCACCGUAAAUGUCCGACUGGAGCCGUUCGGGCGGCUAUAAACAGACCUCAGGCCCGAAGCGUGGCGGCACCUGCCGCCGGUGGUAAAAAAGAUCGGAAGAGCACACGUCU

Variants of: B1
Assay: aptazyme ON/OFF ratio, guanine; higher = stronger switching; co-transcriptional cleavage with and without guanine

Variant | aptazyme ON/OFF ratio
U7G U8C U10A U11A C12U C13G | 1.2
U7G U8C U10A U11A C12U C13A | 1.2
U7G U8C U10A U11A C12U C13U | 1.24
U7G U8C G9U U10A C12U C13A | 1.21
U7G U8C G9U U10A C12U C13U | 1.16
U7G U8C G9U U10A C12U C13G | 1.16
U7G U8C G9U U10A U11C C12U C13U | 1.56
U7G U8C G9U U10A U11C C12U C13G | 1.25
U7G U8C G9U U10A U11C C12U C13A | 1.48
U7G U8C G9U U10C U11A | 3.02
U7G U8C G9U U10C U11G | 1.76
U7G U8C G9U U10C U11C | 1.32
U7G U8C G9U U10G U11C C13A | 1.38
U7G U8C G9U U10G U11C C13U | 1.18
U7G U8C G9U U10G U11C C13G | 1.09
U7G U8C U10A C12G | 1.29
U7G U8C U10A C12A | 1.21
U7G U8C U10A C12U | 1.31
U7G U8C G9U | 4.98
U7G U8C G9C U11C C13A | 1.46
U7G U8C G9C U11C C13U | 1.38
U7G U8C G9C U11C C13G | 1.05
U7G U8C G9U U10G U11C C12A C13U | 1.37
U7G U8C G9U U10G U11C C12A C13G | 1.45

Variant | aptazyme ON/OFF ratio
U7G U8C G9U U10G U11C C12A C13A | 1.23
U7G U8C G9U U10G U11C C12U C13U | 1.16
U7G U8C G9U U10G U11C C12U C13A | 1.34
U7G U8C G9U U10G U11C C12U C13G | 1.22
U7G U8C G9U U10G U11G C12A C13A | 1.11
U7G U8C G9U U10G U11G C12A C13U | 1.34
U7G U8C G9U U10G U11G C12A C13G | 1.12
U7G U8C G9U U10C U11A C12A C13A | 1.52
U7G U8C G9U U10C U11A C12A C13G | 1.31
U7G U8C G9U U10C U11A C12A C13U | 2.1
U7G U8C G9U U10C U11G C12A C13G | 1.21
U7G U8C G9U U10C U11G C12A C13A | 1.18
U7G U8C G9U U10C U11G C12A C13U | 1.25
U7G U8C G9U U10C U11C C12A C13A | 1.52
U7G U8C G9U U10C U11C C12A C13G | 1.22
U7G U8C G9U U10C U11C C12A C13U | 1.54
U7G U8C G9U U10A U11C C12G | 1.26
U7G U8C G9U U10A U11C C12A | 2.56
U7G U8C G9U U10A U11C C12U | 1.72
U7G U8C G9C U11C C12A C13G | 1.21
U7G U8C G9C U11C C12A C13U | 1.53
U7G U8C U10A U11C C12G C13U | 1.16
U7G U8C U10A U11C C12G C13A | 1.11
U7G U8C U10A U11C C12G C13G | 1.06

Variant | aptazyme ON/OFF ratio
U7G U8C G9U C12G C13G | 1.32
U7G U8C G9U C12G C13U | 1.32
U7G U8C G9U C12G C13A | 1.18
U7G U8C G9U U10G C12G C13G | 1.23
U7G U8C G9U U10G C12G C13A | 1.28
U7G U8C G9U U10G C12G C13U | 1.23
U7G U8C G9U U10C U11A C12G C13G | 1.31
U7G U8C G9U U10C U11A C12G C13A | 1.39
U7G U8C G9U U10C U11A C12G C13U | 1.2
U7G U8C G9U U10G U11C C12G C13U | 1.29
U7G U8C G9U U10G U11C C12G C13G | 1.04
U7G U8C G9U U10G U11C C12G C13A | 1.26
U7G U8C G9U U10A U11A C12U C13G | 1.16
U7G U8C G9U U10A U11A C12U C13U | 1.33
U7G U8C G9U U10A U11A C12U C13A | 1.23
U7G U8C U10A U11C C12A C13A | 1.13
U7G U8C U10A U11C C12A C13G | 1.23
U7G U8C U10A U11C C12A C13U | 1.27
U7G U8C G9U U10C C12A C13A | 1.49
U7G U8C G9U U10C C12A C13G | 1.27
U7G U8C G9U U10C C12A C13U | 1.58
U7G U8C G9U U11C C12U C13A | 1.31
U7G U8C G9U U11C C12U C13U | 1.49
U7G U8C G9U U11C C12U C13G | 1.05

Variant | aptazyme ON/OFF ratio
U7G U8C G9U U10G C12U C13U | 1.34
U7G U8C G9U U10G C12U C13G | 1.39
U7G U8C G9U U10G C12U C13A | 1.29
U7G U8C G9U C13G | 1.04
U7G U8C G9U C13A | 1.36
U7G U8C G9U C13U | 2.37
U7G U8C G9U U10C C13G | 1.12
U7G U8C G9U U10C C13U | 1.47
U7G U8C G9U U10C C13A | 1.37
U7G U8C G9U U10A U11G | 2.29
U7G U8C G9U U10A U11A | 4.34
U7G U8C G9U U10A U11C | 1.37
U7G U8C G9U U10A U11G C12A C13U | 1.11
U7G U8C G9U U10A U11G C12A C13A | 1.1
U7G U8C G9U U10A U11G C12A C13G | 1.09
U7G U8C G9U U10A U11G C12A | 1.12
U7G U8C G9U U10A U11G C12G | 1.19
U7G U8C G9U U10A U11G C12U | 1.33
U7G U8C G9U U11G C12G C13A | 1.08
U7G U8C G9U U11G C12G C13U | 1.09
U7G U8C G9U U11G C12G C13G | 1.12
U7G U8C G9U U11G C12G | 1.34
U7G U8C G9U U11G C12A | 1.44
U7G U8C G9U U11G C12U | 1.55

Variant | aptazyme ON/OFF ratio
U7G U8C G9U U10C U11C C12G | 1.16
U7G U8C G9U U10C U11C C12U | 1.29
U7G U8C G9U U10C U11C C12A | 1.42
U7G U8C G9U U10A C12G C13U | 1.22
U7G U8C G9U U10A C12G C13G | 1.08
U7G U8C G9U U10A C12G C13A | 1.13
U7G U8C G9U U10A U11G C13U | 1.38
U7G U8C G9U U10A U11G C13G | 1.1
U7G U8C G9U U10A U11G C13A | 1.14
U7G U8C G9C U11C C12U C13U | 1.34
U7G U8C G9C U11C C12U C13G | 1.1
U7G U8C G9C U11C C12U C13A | 1.22
U7G U8C G9U U10G U11G C12G C13A | 1.11
U7G U8C G9U U10G U11G C12G C13U | 1.25
U7G U8C G9U U10G U11G C12G C13G | 1.23
U7G U8C U10A U11A C13A | 1.18
U7G U8C U10A U11A C13U | 1.21
U7G U8C U10A U11A C13G | 1.18
U7G U8C G9U U10A U11C C12A C13G | 1.33
U7G U8C G9U U10A U11C C12A C13A | 1.28
U7G U8C G9U U10A U11C C12A C13U | 1.59
U7G U8C G9U U10C C12A | 2.08
U7G U8C G9U U10C C12U | 1.12
U7G U8C G9U U10C C12G | 1.87

Variant | aptazyme ON/OFF ratio
U7G U8C G9U U10G U11A C12U C13A | 1.21
U7G U8C G9U U10G U11A C12U C13U | 1.36
U7G U8C G9U U10G U11A C12U C13G | 1.23
U7G U8C G9U U10A U11C C12G C13A | 1.14
U7G U8C G9U U10A U11C C12G C13G | 1.05
U7G U8C G9U U10A U11C C12G C13U | 1.31
U7G U8C G9U U10G U11G C12U C13U | 1.44
U7G U8C G9U U10G U11G C12U C13G | 1.08
U7G U8C G9U U10G U11G C12U C13A | 1.17
U7G U8C G9U U10C C12U C13G | 1.24
U7G U8C G9U U10C C12U C13A | 1.35
U7G U8C G9U U10C C12U C13U | 1.26
U7G U8C G9U U10G U11C C12U | 1.26
U7G U8C G9U U10G U11C C12A | 2.33
U7G U8C G9U U10G U11C C12G | 1.38
U7G U8C U10A | 1.33
U7G U8C G9U U10G C12U | 1.25
U7G U8C G9U U10G C12G | 1.5
U7G U8C G9U U10G C12A | 1.58
U7G U8C G9U U10C U11G C12G C13G | 1.11
U7G U8C G9U U10C U11G C12G C13U | 1.08
U7G U8C G9U U10C U11G C12G C13A | 1.08
U7G U8C U10A C12U C13A | 1.36
U7G U8C U10A C12U C13G | 1.26

Variant | aptazyme ON/OFF ratio
U7G U8C U10A C12U C13U | 1.12
U7G U8C U10A U11C C12U | 1.03
U7G U8C U10A U11C C12A | 1.24
U7G U8C U10A U11C C12G | 1.16
U7G U8C G9U U11C C12A C13U | 1.23
U7G U8C G9U U11C C12A C13G | 1.32
U7G U8C G9U U11C C12A C13A | 1.36
U7G U8C G9C U11G | 1.33
U7G U8C G9U U11C C13U | 1.3
U7G U8C G9U U11C C13A | 1.38
U7G U8C G9U U11C C13G | 1.04
U7G U8C G9U U10C U11A C13U | 1.79
U7G U8C G9U U10C U11A C13A | 1.49
U7G U8C G9U U10C U11A C13G | 1.06
U7G U8C G9U U10C | 1.64
U7G U8C G9U U10A | 4.06
U7G U8C G9U U10G | 3.44
U7G U8C G9U U10A U11G C12U C13U | 1.16
U7G U8C G9U U10A U11G C12U C13A | 1.2
U7G U8C G9U U10A U11G C12U C13G | 1.11
U7G U8C G9U U10C U11G C13G | 1.09
U7G U8C G9U U10C U11G C13U | 1.38
U7G U8C G9U U10C U11G C13A | 1.44
